This note sets out measurements from US20230406912A1, “HUMANISED ANTIBODIES AGAINST PATHOGENIC FUNGI” (priority 2020, published 2023).

For assay [1], the system named is C. auris. The assay is described as follows: Growth inhibition assay (CFU count). The class given is cell-based. Conditions: 18 h at 37° C. How it is done: The growth inhibitory activity of humanised mAb 2G8 H5/K1 was tested as reported in W. Magliani et al, Nature Biotech. 1997; 15:155-158 with some modifications. In brief, 150-250 cells of C. auris in 10 μl of PBS were incubated with 100 μl of humanised mAb 2G8 at 250, 100 and 50 μg/ml (each concentration was tested in triplicate) and incubated for 18 h at 37° C. The inhibition was evaluated by seeding the yeast on PDA. The plates were incubated at 37° C. for 48 h and the inhibition was calculated by count of the CFU. The assay was performed in triplicate.

Assay [2] can be described thus: ELISA assay on laminarin-coated plates. It counts as binding. As for the experimental part:
The activity of the purified antibody was then tested by ELISA assay. 96-well plates were coated with 50 μg/ml Laminarin (Sigma-Aldrich, L9634) in 0.05 M carbonate buffer pH 9.6 overnight at 4° C. Nonspecific interactions were blocked with 100 μL/well blocking solution, 3% (w/v) BSA in PBS-Tween 20 (8 g/L NaCl, 0.2 g/L KH2PO4, 2.9 g/L Na2HPO4·12 H2O, 0.2 g/L KCI, 0.05% (v/v) Tween 20, pH 7.4) at 37° C. for 1 h. The plates were then incubated with decreasing concentrations of hmAb 2G8_first approach (comparative purpose) (from 3.12 μg/ml to 0.003 μg/ml, each concentration was tested in triplicate) in blocking solution for 2 h at 37° C. At the same temperature and for the same time, 100 μL Goat anti-human-HRP diluted 1:1000 in blocking solution was poured in each well. After every single passage the plates were washed 5 times with PBS-Tween 20. To reveal the binding, 100 μl of 5 mg-ABTS tablet (Roche Diagnostics) dissolved in 12 ml of sodium citrate (0.05 M, pH 3) and supplemented with 1:1000 dilution hydrogen peroxide (Carlo Erba) was added and after 15, 30, 45 and 60 min the absorbance at 405 nm was measured. For the whole measuring time the plates were left in the dark. IC50 analysis of ELISA test was performed with Prism. The TEST was performed in triplicate.
The surnatants collected from the obtained humanised mAb were tested in ELISA test.
Four supernatants from hmAb according to the invention (H5/K3; H5/K1; H5/K7; H5/K5) were purified to confirm the data. 8 scalar dilutions, starting from 5 μg/ml, were tested.
The purified humanised mAb 2G8 H5/K1 was then tested in an ELISA assay using laminarin as a target.
(An ELISA detects its analyte on a solid surface through an enzyme-linked reagent.)

The test system of assay [3] is C. auris adhesion to HeLa cells. The assay is described as follows: Adhesion assay, fungal adhesion to HeLa cell monolayer. It counts as cell-based. To be noted: 12 μg/ml, HeLa:yeast 1:1, 1 hour. As for the experimental part:
In order to investigate the protective effect of hmAb 2G8 H5/K1 in preventing fungal adhesion to human cells commonly known to be preferred targets, C. auris cells were left adhering to a monolayer of HeLa cells together with the humanised mAb H5/K1, to reproduce an infection-medication scenario. 1.0×10^4 cervical cancer cells HeLa were suspended in RPMI+*10% FBS (pH 7) and plated in a 96-well plate for 2 hours at 37° C.+5% CO2. After incubation, the cells not attached at the bottom of the wells were washed away and 1.0×10^4 cells of C. auris suspended in RPMI+MOPS (0.165 M, pH 7) were added to reach a 1:1 ratio HeLa:yeast cells. Together with the yeast, 12 μg/ml of the humanised mAb 2G8 were added. PBS was used in the control sample. The plate was left at 37° C. for 1 hour and after washing 5 times, HeLa cells were lysed with PBS 0.1% Triton X100 (15 min. RT). The suspension was plated in PDA plate and incubated at 37° C. for 48 hours. This experiment has been repeated two times in triplicate.

For assay [4], the system named is β-1,3-glucans on the surface of C. auris. Description: Recognition of C. auris by flow cytometry and confocal microscopy. Conditions: 12 μg/ml mAb. It counts as cell-based. As for the experimental part: From an overnight inoculum, C. auris cells were washed with RPMI+MOPS (0.165 M, pH 7) and 3.0×10^6 cells were pelleted, suspended in Phosphate buffered saline (PBS) containing 3% (w/v) BSA (Bovine Serum Albumin—Sigma Aldrich) and put in contact with 12 μg/ml of the humanised mAb 2G8 for 1 hour at room temperature. The cells were then washed with PBS and marked with anti-human IgG FITC antibody 1:150 in PBS+3% BSA for 1 hour. The cells were then washed and fixed with paraformaldehyde 4% in PBS 1 hour at 4° C. After fixing and washing with PBS, the pellet was suspended in 400 μl of PBS and splitted in two tubes. The samples were analysed using flow cytometry and confocal microscopy, respectively.
A Flow cytometer (FACScanto II, BDBioscences, Erembodegem, Belgium), equipped with three lasers (488 nm, 633 nm, 405 nm) was employed to collect and quantitate FITC fluorescence from different samples. Both autofluorescence and fluorescence derived from a specific binding of FITC-conjugated secondary Ab were quantitated by Flow Cytometry. […] The histogram CTRL evaluates the background from aspecific binding of FITC-conjugated secondary Ab, enabling to fix the threshold defining the positivity for the humanised mAb H5/K1 (treated). 97% of events express the antigen (treated panel). The expression was precisely quantitated by MFI values: the fold of increase is 164, when compared to control (FIG. 12B). Light grey events in FIG. 12A histograms represent cells outside the scatter area mainly occupied by the cells: i.e. aggregates or increase in cell size (as during senescence).
On the technique in general: In flow cytometry, cells or beads pass a laser one at a time.

B1: hmAb 2G8 H5/K1: humanised anti β-1,3 glucan mAb; heavy chain variable region H5 (SEQ ID NO: 22), light chain variable region K1 (SEQ ID NO: 15) (antibody, V domains shown)
VH: QVQLQQSGAELKKPGASVKISCKASGYTLSSYWLEWVRQRPGQGLEWIGEILPGSGSTNYNEKFKGRATFTADTSTNTAYMELSSLTSEDSAVYYCAREGWYFDVWGQGTTVTVSS
VL: DVVMTQSPLSLPVTLGQPASISCRSSQSLLYSNGNTHLNWFQQRPGQSPRRLIYLVSNRDSGVPDRFSGSGSGTDFTLKISRVEAEDVGVYYCVQGTHFPYTFGGGTKLEIK
modifications: VH-H5; VL-K1
For B1, the “inhibition of yeast cell growth” value was “over 60%” in assay [1] (50 μg/ml), “over 70%” in assay [1] (100 μg/ml) and “over 70%” in assay [1] (250 μg/ml). In addition, the “activity / affinity compared with murine 2G8” value in assay [2] (ELISA) was “performs better than the original murine one”. Besides, in assay [2] (ELISA of supernatants of humanised mAbs), the “Abs 405 nm” value came out at 3.48. The “performance in ELISA assay of purified hmAbs” value in assay [2] (purified supernatants, 8 scalar dilutions from 5 μg/ml) was “best performer”. Moreover, in assay [3], the “reduction in fungal adhesion to mammalian cells” value is listed as 51.5%. Besides, the “binding on confocal images” value in assay [4] (confocal microscopy, FITC signal) is “recognize and bind β-1,3-glucans on the surface of C. auris”. Moreover, the “MFI fold of increase compared to control” value in assay [4] (flow cytometry) is given as 164 fold. For the same molecule, the “events expressing the antigen (FITC positive)” value in assay [4] (flow cytometry, 1 hour) was 97%.
